According to the DeepSol protein solubility set:

Assay: soluble on expression in E. coli; label from the status in PepcDB or PDB records

Sequence	soluble on expression in E. coli
MEWKPNRADKTPVYKQIADYIERGISSGEFPSDSKLPSERMLAKELQVNRSTIVAAYEELKSLGVVERQKGSGTRVNTDIWGVSHKRIPNWGRYVEDGSFLPNVPLVQQIRTETQKDDLINLASGELSPELIPSDRFRTILSEKTFMENLGYDHPLGNEMLRKTIAAHVQQYKQIEADSSSILITSGAQQALNLIVQCLLKPGDAIAIEDPSYCFSLPMFKSAGLNIFHLPVDEHGMNPDDLIDLHKKHRIRMVFLNPDYQNPTGTVLSLARRKKILELSSEFGIPIVEDDPYSLISFNGEVNPTLKSMDQNGNVLYISSLSKIVASGLRIGWIIGPTRVIERLADAKQQVDFGHSVFTQWVANQFLESKDFHKHITILRGQLKQRRDVLIAELEGTLGDRVECFVPEGGIHVWCKVKGKFDEYHLLGESIQNGVAFVPGSVLGSKNEYIRFTFGRANIEQIQLGIKRFADTLNEIS	not soluble
MRLDYWSDSSKPIQQQWRDYDEISDNFKKAVVAAEDGKFVHHHGFDWEGIQYALEKNEKSGEVVNGGSTISQQLAKNLFLYNQRSLIRKGQEAIATWMMERMWSKQRILEVYMNSVQFGDHLYGVEAASHYYFHRSAQNLTRDQAAFLAALLPNPKYYQENRNDPRFKFKKRFTLKYMRYSEIP	not soluble
MSLEDTTITFWHAMNGVQEEALTKLTKDFMKENPKIKVELQNQSAYPDLQAKINSTLTSPKDLPTITQAYPGWLWNAAQDEMLVDLKPYMDDDTIGWKDAEPIREVLLDGAKIDGKQYGIPFNKSTEMLFYNADLLKEYGVEVPKTLEELKEASKTIYEKSNKEVVGAGFDSLNNYYAIGMKNKGVDFNKDLDLTSKDSQEVVDYYRDGIEAGYFRTAGSDKYLSGPFANKKVAMFVGSIAGAGFVQKDAEAGGYEYGVAPRPEKINLQQGTDIYMFDSATPEQRTAAFEFMKFLATPDSQLYWAQQTGYMPILESVLHSDEYKNSKTTKVPAQLENAVKDLFAIPVEENADSAYNEMRTIMESIFASSNKDTRKLLKDATSQFEQAWNQEGHHHHHH	soluble
MIFYFSGTGNSKWIANQLSKEQQEDLFFIPDAWKNDTWEFSLREDEKIGFVFPVYSWAPPVIVQEFIRKLVLKGYQQQYLFFVCSCGDDTGLTRQVMEKALAARGWRCNAGFSVIMPNNYVLFLGFDVDSKELEKKKLAEAVPALEKVSRLITGRETVFACKEGSLPFIKTRIINPLFVRYQMSPKPFHATSECIGCKRCEKSCPVGNITMKERRPVWGKNCTACLACYHVCPQHAVQYGKKTKGKGHYFNPDSAY	not soluble
MNILLLDGGKAFGHSHGGLNRTLHKKAKEVLTALGHNVQETVIDAGYDVEAEIEKFVWMDAVIWQMPGWWMHEPWTVKKYIDEVLTAGHGKLYQSDGRHSVNPTEGYGTGGLLQGKKHMISLTWNAPIEAFTREGDFFEGKGVDVLYMHFHKANEFLGMTRLPTFLCNDVVKNPQVEKYLADYQAHLEKVFG	not soluble
MVITKHFAIHGKSYRRKLIKYILNPEKTNNLALVSDYGMKNFLDFPSYEEMVQMYHENFISNDTLYDFRHDRMEENQRKIHAHHIIQSFSPEDHITPEQINRIGYETVKELTGGKFRFIVATHVDKDHLHNHIIINSVDSNSDKKLKWDYKVERNLRMISDRFSKIAGAKIIENRYSHQRYEVYRKTNHKYELKQRLYFLMEHSRDFEDFKKNAPLLHVEMDFRHKHATFFITDSTMKQVVRGKQLNRKQPYTEEFFKNYFAKREIESLMEFLLLKVENMDDLLQKAKLFGLTINPKQKHVSFQFAGVEVKETELDQKNLYDVEFFQDYFKNRKDWQAPETEDFVQLYQEEKLSKEKELPSDEKFWESYQEFKSNRDAVHEFEVELSLNQIEKVVDDGIYVKVKFGIRQEGLIFVPNMQLDMEEDKVKVFIRETSSYYVYHKDAAEKNCYMKGRTLIRQFSYENQTIPLRRKATVDMIKEKIAEVDALIELEVENQSYVTIKDELVHELAASELRINELQERMSTLNQVAEYLLASVESKQEMKLNLSKLNITENISANIVEKKLKSLGNQLELERGRYEKMVVRLDKFINRLNTGLSKGDGIDFQK	not soluble
MSLVKAVLFDIDGTLLSEKPLIMFILPQVYDELANKLNISRMEARRIFLSEIEKRKGKYEWHDWNFFFRLFSLPFKYEDFIMKYPTKIEVFPGVVEVLKYLKERGYRLGIVTSGPRYQVLKLKVSGIYRYFDVVVTRDDVGSIKPEPRIFLAALEKLKISPKDAVMVGDSLEQDILGAKGVGMKSVWINVGGENGYNLPDFEISSILQLPEVIEDESDIEGHHHHHH	soluble
MSLKIVDATVLVTCPGRNFVTLRITTDEGVTGLGDATLNGREQAVVAYLREHVVPLLLGTDPHRIEDTWQSLYRGAYWRRGPVTMAAIAAVDVALWDIKAKVANLPLYQLLGGASRERVRTYGHANGRDIPELLDSVRARQAEGYQAIRVQTGVPGLRKVYGVHTGEAIAHNPTRLDQRAVPVVEDWDTPAYLRHLPTVLEAVRNEFGPELPLLHDAHHRLTPLQAAKLGKDVERYDLFWLEDCTPAENQEAFRLVRHHTTTPLAVGEVFNTVFDYQTLIAEQLIDYARSAVTHFGGVSALRKLFDFAAQHQVKSAIHGPEDISPVGMAAAIHLDLAVHNFGIQEYSGHTDATNEVFRHAYTFTDGHLHPGEAPGIGVDYDEELAAAHPYDPAYLPVNRLADGTVHDWEGHHHHHH	not soluble
MGSDKIHHHHHHMKASLEQSSLPCRRFGRTGLSMPVLSLGGMRFQQSWTDLEAEVITSESQQLLKDILERAVACGFHHVETARHYGSSERQLGWALRDVLDPQRLLQSKVPPREDPKVFEAELALSFERLGCERLDLVAIHGLNLSEHLEQTLRPGGCMDVLRRWQGDGRIGHVGFSTHGPTDLIVQAIETDAFDYVNLHWYFIYQDNDPALDAAARHDLGVFIISPTDKGGHLHSPSSQLLELCAPLHPIVFNDLFCLQDPRVHTISVGAARPSDLDRHLEAVDLLQSAAELLPPVQQRLVDAAQLALGEAWWTSWQRGLPPWQESPGEINLPILLWLHNLVEAWGMEGYAKARYGLLGSGSHWFPGANAEALDADVSETALREVLVNSPWCDQIPGLLRRLRNRLGGHPQQRLTSV	not soluble
STGQGQSASGSSAWSTVFRHVRYENLIAGVSGGVLSNLALHPLDLVKIRFAVSDGLELRPKYNGILHCLTTIWKLDGLRGLYQGVTPNIWGAGLSWGLYFFFYNAIKSYKTEGRAERLEATEYLVSAAEAGAMTLCITNPLWVTKTRLMLQYDAVVNSPHRQYKGMFDTLVKIYKYEGVRGLYKGFVPGLFGTSHGALQFMAYELLKLKYNQHINRLPEAQLSTVEYISVAALSKIFAVAATYPYQVVRARLQDQHMFYSGVIDVITKTWRKEGVGGFYKGIAPNLIRVTPACCITFVVYENVSHFLLDLREKRK	soluble
MGKSSKPIQTTQNTTQTNAPPEWAKGIFERAAKDAMSFYNQGSGKAVYDGQRVAGLSDQTKNAINGLSNNTHNYDNNYLNGLATGQNSTSQNLKNMASGHEIGNNPYFKEALQNTLNKASDTINSSLAGAGRYGSGAHTGVLADELGSIATQALSQQYNQDVNNMMQANGMIDQANQNQLASANNFFQGQGQANLNALSGGGLLDANHQQQLDEERQKWEQQNNLDWDQLSKLLAAGTASAGNYGMQTEQRTQFTPQTKLNPWQTIGNVGTILGTFAGLSDRRAKENIREAGQKKGYTLYEYNYKGSPERYRGVMAQDVLRSNPEAVFYNNTTGLLHVDYDKLGFNMERVQ	not soluble
PQFEKIEGRMIRILYLLVKPESMSHEQFRKECVVHFQMSAGMPGLHKYEVRLVAGNPTDTHVPYLDVGRIDAIGECWFASEEQYQVYMESDIRKAWFEHGKYFIGQLKPFVTEELV	soluble
MSLRFGNRKLRQQQALQYELEKNKAELEEYREELVSHFARSAELLDTMAHDYRQLYQHMAKSSSSLLPEMSAESNPFRNRLAESEASNDQAPVQMPRDYSEGASGLLRSGAKRDEGHHHHHH	not soluble
MGSDKIHHHHHHMHACGDAVLFLPPNPFLDLRPVPHTSWARLPPMIRLAVLSDLHANLEATLAVHADVQRRGIQEIWVLGDLVGKGPRPREVVEWTQAHASRVIQGNWDARVAGATNRPQDLWPRSKLTPAQLAYLAGLPYGIEEQFSGAWWRFVHASSKGLFHRLYPHSSLAEQLEAYMPNPQFGLKVHADALVYADVHETLMLDVEGRPLINTGSVGNPLDSTLPSYLILEFDPHSPAHSATFVRLTYNRDAEIAAAEASGMPFTREYVAELLTGAYQKRRARTGE	not soluble
MNKFLGMYNTNTSNGGFVMSEKIYLKIDQQRYVKKPRVTIGDVMTVYCSDKDMIEKIGHITLAEFTLGKYDRKVFDALDVVGIIQKEYPDADIECLGECDFVVEYKKPEKEGTVH	not soluble
MIRVACVGITVMDRIYYVEGLPTESGKYVARNYTEVGGGPAATAAVAAARLGAQVDFIGRVGDDDAGNSLLAELESWGVNTRYTKRYNQAKSSQSAIMVDTKGERIIINYPSPDLLPDAEWLEEIDFSQWDVVLADVRWHDGAKKAFTLARQAGVMTVLDGDITPQDISELVALSDHAAFSEPGLARLTGVKEMASALKQAQTLTNGHVYVTQGSAGCDWLENGGRQHQPAFKVDVVDTTGAGDVFHGALAVALATSGDLAESVRFASGVAALKCTRPGGRAGIPDCDQTRSFLSLFV	not soluble
KKEDIVRIHASSGTSGKPTVVGYTAKDIETWSDLIARSLTMIGLSKGDTIQNSMNYGLFTGGLGFHYGVERMGAMIVPAATGNTARQLEMMIDFGVTAVHCTPSYAFYLAETAEELDLIDKLSLKAAIFGGEPWSENTRKQLEKRLNLKAYDCYGLSEMFGPGVGFECQEQDGLHIW	not soluble
MVWSSETFGMTPEEQIEWMALDDQEKKKLERKRARNRQAATKCRQKKMDRIKELEEQVLHEKHRGQRLDAELLELNRALEHFRRTVEHHSGNGCPNNSIRV	not soluble
MRKQALHPRTAVINKAQKNQSKRARSDALLWLAANFPEAFDNSLRIRPLKIGIMSDILQHAEKAEQVGISKSKLREAVVLFTRRLDYLACLKAREVRIDLHGNPVAEVTEEEAEHASMKIKKRVEKSVKNARKQVNAKAANHSHVNSQPSAVSSVKPMNSFDSHPEPLLPIYPLRSSTYASQNVAMQSAKSPSVVVKHKAPKQYDPDAVARLKEKLGLSRKAEEKKETTE	not soluble
MAFWQSKTLTEMTSQEWESLCDGCGKCCLNKLIDDETEELYYTNAACLLLDHQTTSCQHYSDRFRYVPQCTVITAQNVHELTWLPDSCAYRRLAAGRALPSWHPLLTGSKDAMHLAGMSIQGKVVDERRVKDIEDHIVLWPLKDLD	soluble
MKSYPDPYRHFENLDSAETQNFAAEANAETRARFLENDKARALSDGILAQLQDTRQIPFCQEHRARMYHFHQDAEYPKGVYRVCTAATYRSGYPEWKILFSVADFDELLGDDVYLGGVSHLVEQPNRALLTLSKLGSDTAYTLEVDLEAGELVEGGFHFPAGKNHVSWRDENSVWVCPAWNERQLTQSGYPREVWLVERGKSFEESLPVYQIGEDGMMVNAWRYLDPQGSPIDLIEASDGFYTKTYLRVSAEGEAKPLNLPNDCDVVGYLAGHLLLTLRKDWN	not soluble
SLVGYSAVSQPSPASFLLGPTLPPAPSIAFRLWRPYSMTARITSVEALPYRLPLTSKLAWGAHSALSAAEHVLVRVTLSDGSVGVAEATPRPTIYGETPGSVTAILQHLEPALLGLDIADEAALNRVRGSVAGNHTARGALDMALWEARAASRGQSLFDTLLGPHERVRVSFILGIAPPAEMLAEAERVVAAGVRCLKVKVGRHAAQDLQVIAELRRRYGDDVQLYADSNETLTLEQAPDVLAAMREAGLMYVEEPLPARDLRARAALHAAGVLPIVADDSCFTPADLERELDFDTFDVLNVKTARNGFTDGLQMLRRAAEHGKRGMVGSQASTGLGTLHAALLSTQAEVTEPCELSFVLKLGDDLLNRPIEFQDGWLNVPELREHRLDEDKLARYRI	soluble
